According to patent JP2010500380A:

Biological target: 白血球IFN (leukocyte IFN, Sigma I-2396)
Test: cell-based or functional assay

B1: ACO-1 (antibody, V domains shown)
VH: QVQLQQPGAELVKPGASVKLSCKASGYTFTNYWMHWVKQRPGQGLEWIGEINPSHGRTIYNENFKSKATLTVDKSSITAFMQLSSLTSEDSAVYFCARGGLGPAWFAYWGQGTLVTVSA
VL: QIVLTQSPAIMSASPGEKVTLTCSAGSSVDSSYLYWYQQKPGSSPKLWIYSTSNLASGVPARFSGSGSGTSYSLTISSMEAEDAASYFCHQWSSYPFTFGSGTKLEIKR
With B1 the percent block of bioactivity, RG bioassay, 600 pg leukocyte IFN was > 50%.
